In patent publication US20170166621A1 (Novartis, published 2017):

Legend:
GLP-1 receptor = GLP-1 receptor (UniProt P43220 24-463, limits assumed); experiment: cell-based or functional assay
FGF21 receptor = experiment: cell-based or functional assay

Binder | cAMP EC50 (fold-Ex-4); GLP-1R only cells (GLP-1 receptor) | cAMP EC50 (fold-Ex-4); GLP-1R/FGFR1c/beta-klotho cells (GLP-1 receptor) | cAMP EC50 (nM); GLP-1R only cells (GLP-1 receptor) | cAMP EC50 (nM); GLP-1R/FGFR1c/beta-klotho cells (GLP-1 receptor) | cAMP EC50 (fold-Ex-4); GLP-1R only cells; V253 + V76 co-treatment (GLP-1 receptor) | cAMP EC50 (fold-Ex-4); GLP-1R/FGFR1c/beta-klotho cells; V253 + V76 co-treatment (GLP-1 receptor) | cAMP EC50 (nM); GLP-1R only cells; V253 + V76 co-treatment (GLP-1 receptor) | cAMP EC50 (nM); GLP-1R/FGFR1c/beta-klotho cells; V253 + V76 co-treatment (GLP-1 receptor) | potency in the FGF21 receptor assay (FGF21 receptor)
GLP-1(7-35; A8S)-GSGGGGSGGG-FGF21(33-209; Q56E-D74H-Q82E-R105K-K150R-R154C-40 kDa branched PEG-R159Q-S195A) (ligand, 40 kDa branched PEG on Cys at R154C (FGF21 numbering)) HSEGTFTSDVSSYLEGQAAKEFIAWLVKGGSGGGGSGGGDSSPLLQFGGQVRQRYLYTDDAQETEAHLEIREDGTVGGAAHQSPESLLELKALKPGVIQILGVKTSRFLCQKPDGALYGSLHFDPEACSFRELLLEDGYNVYQSEAHGLPLHLPGNRSPHCDPAPQGPARFLPLPGLPPALPEPPGILAPQPPDVGSSDPLAMVGPSQGRSPSYAS | 6 fold | 0.4 fold | 64 nM | 2.4 nM | – | – | – | – | –
GLP-1(7-35; A8S)-SGGGGSGGG-FGF21(33-194; R154C-40 kDa branched PEG) (ligand, 40 kDa branched PEG on Cys at R154C (FGF21 numbering)) HSEGTFTSDVSSYLEGQAAKEFIAWLVKGGSGGGGSGGGDSSPLLQFGGQVRQRYLYTDDAQQTEAHLEIREDGTVGGAADQSPESLLQLKALKPGVIQILGVKTSRFLCQRPDGALYGSLHFDPEACSFRELLLEDGYNVYQSEAHGLPLHLPGNKSPHCDPAPRGPARFLPLPGLPPALPEPPGILAPQPPDVGSSDPLS | 3.2 fold | 4.1 fold | 34 nM | 24 nM | 3.5 fold | 2.1 fold | 38 nM | 12 nM | ≥ 1000 fold less potent
